Assay results from patent US20150344570A1 (published 2015).

T1: FcgRIIaR (human, UniProt P12318 34-217)
T1 construct: extracellular domain; also called FcγRIIa R; FcγRIIa type R; not shown: His tag at the C terminus
T1 sequence (looked up): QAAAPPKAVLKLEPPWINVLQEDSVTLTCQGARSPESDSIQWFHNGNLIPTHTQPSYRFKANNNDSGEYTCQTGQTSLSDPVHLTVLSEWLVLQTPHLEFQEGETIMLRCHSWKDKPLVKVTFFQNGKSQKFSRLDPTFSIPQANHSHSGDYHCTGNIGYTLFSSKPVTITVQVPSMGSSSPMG

T2: FcgRIIaH (human, UniProt P12318 34-217)
T2 construct: extracellular domain; also called FcγRIIa H; FcγRIIa type H; not shown: His tag at the C terminus
T2 sequence (looked up): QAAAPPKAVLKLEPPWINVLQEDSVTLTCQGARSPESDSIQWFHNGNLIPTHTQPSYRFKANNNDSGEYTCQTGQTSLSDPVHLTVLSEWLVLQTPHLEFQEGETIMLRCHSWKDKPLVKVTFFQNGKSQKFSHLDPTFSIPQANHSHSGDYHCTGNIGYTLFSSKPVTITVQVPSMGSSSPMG

T3: FcgRIIb (human, UniProt P31994 43-217)
T3 construct: extracellular domain; also called FcγRIIb; CD32B; not shown: His tag at the C terminus
T3 sequence (looked up): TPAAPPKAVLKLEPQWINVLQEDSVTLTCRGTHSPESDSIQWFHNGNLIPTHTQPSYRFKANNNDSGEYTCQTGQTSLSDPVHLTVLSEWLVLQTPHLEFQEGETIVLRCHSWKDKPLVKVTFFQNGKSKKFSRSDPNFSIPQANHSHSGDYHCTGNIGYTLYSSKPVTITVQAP


Tests used:
Assay in all cases: SPR (Biacore); KD of H240-Kn033/H240-Hl033/L73-k0 divided by KD of the variant
[1] = molecular target: T1, FcgRIIaR
Procedure: (§1) Binding of the produced variants to FcgRIa, FcgRIIaR, FcgRIIaH, FcgRIIb, FcgRIIIaF, and FcgRIIIaV was measured according to the method of Reference Example 8.
(§2) Analysis of interaction between objective antibody and the FcγR was carried out using Biacore T100 (GE Healthcare), Biacore T200, Biacore A100, and Biacore 4000. HBS-EP+ (GE Healthcare) was used as the running buffer, and the measurement temperature was set to 25° C. Chips produced by immobilizing the antigen peptide by the amine coupling method to a Series S sensor Chip CM5 (GE Healthcare), chips produced by allowing preliminarily biotinylated antigen peptides to interact with and immobilize onto a Series S Sensor Chip SA (certified) (GE Healthcare), chips produced by immobilizing Protein L (ACTIGEN, BioVision) to Series S Sencor Chip CM5 (GE Healthcare), or chips produced by immobilizing Protein A/G (Thermo Scientific) to Series S Sencor Chip CM5 (GE Healthcare) were used. Antibodies of interest were captured onto these chips, and allowed to interact to each FcγR diluted with running buffer. To regenerate and repeatedly use the chip, the antibodies captured onto the chip were washed off by reacting 10 mM glycine-HCl, pH 1.5.

[2] = molecular target: T4, FcgRIIIaV (human, UniProt P08637 17-208)
T4 construct: extracellular domain; also called FcγRIIIa V; not shown: His tag at the C terminus
Procedure: as §1, §2

[3] = molecular target: T2, FcgRIIaH
Procedure: as §1, §2

[4] = molecular target: T3, FcgRIIb
Procedure: as §1, §2

[5] = molecular target: T5, FcgRIIIaF (human, UniProt P08637 17-208)
T5 construct: extracellular domain; also called FcγRIIIa F; not shown: His tag at the C terminus
Procedure: as §1, §2

T4 sequence (P08637 17-208 F176V limits assumed): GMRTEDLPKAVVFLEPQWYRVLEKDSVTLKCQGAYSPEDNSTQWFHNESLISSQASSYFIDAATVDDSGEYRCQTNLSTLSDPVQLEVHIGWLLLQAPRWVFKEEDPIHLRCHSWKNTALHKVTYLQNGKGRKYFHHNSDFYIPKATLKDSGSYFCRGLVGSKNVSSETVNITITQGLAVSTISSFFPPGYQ
T5 sequence (P08637 17-208): as the sequence (P08637 17-208 F176V limits assumed) above, with V160F counted along it

Binder	fold 2aR [1] [fold]	fold 3aV [2] [fold]	fold 2aH [3] [fold]	fold 2b [4] [fold]	fold 3aF [5] [fold]
H240-Kn032/H240-Hl032/L73-k0 (antibody, human IgG1, kappa, S239D/A330L/I332E in both H chains) heavy 1: QDQLVQSGAEVKKPGASVKVSCKASGFNIKDTYIQWVRQAPGQGLEWMGRIDPLRKQTKYREKFEGRVTITADTSTNTAYMELSSLRSEDTAVYYCVRSGREFDYWGQGTLVTVSSASTKGPSVFPLAPSSKSTSGGTAALGCLVKDYFPEPVTVSWNSGALTSGVHTFPAVLQSSGLYSLSSVVTVPSSSLGTQTYICNVNHKPSNTKVDKKVEPKSCDKTHTCPPCPAPELLGGPDVFLFPPKPKDTLMISRTPEVTCVVVDVSHEDPEVKFNWYVDGVEVHNAKTKPREEQYNSTYRVVSVLTVLHQDWLNGKEYKCKVSNKALPLPEEKTISKAKGQPREPQVCTLPPSRDELTKNQVSLWCLVKGFYPSDIAVEWESNGQPENNYKTTPPVLDSDGSFFLYSKLTVDKSRWQQGNVFSCSVMHEALHNHYTQKSLSLSP heavy 2: QDQLVQSGAEVKKPGASVKVSCKASGFNIKDTYIQWVRQAPGQGLEWMGRIDPLRKQTKYREKFEGRVTITADTSTNTAYMELSSLRSEDTAVYYCVRSGREFDYWGQGTLVTVSSASTKGPSVFPLAPSSKSTSGGTAALGCLVKDYFPEPVTVSWNSGALTSGVHTFPAVLQSSGLYSLSSVVTVPSSSLGTQTYICNVNHKPSNTKVDKKVEPKSCDKTHTCPPCPAPELLGGPDVFLFPPKPKDTLMISRTPEVTCVVVDVSHEDPEVKFNWYVDGVEVHNAKTKPREEQYNSTYRVVSVLTVLHQDWLNGKEYKCKVSNKALPLPEEKTISKAKGQPREPQVYTLPPSRCELTKNQVSLSCAVKGFYPSDIAVEWESNGQPENNYKTTPPVLDSDGSFFLVSKLTVDKSRWQQGNVFSCSVMHEALHNHYTQKSLSLSP light: DIQMTQSPSSLSASVGDRVTITCRASQDIHKYIAWYQQKPGQAPRLLIQYTSTLQPGVPSRFSGSGSGTDYTFTISSLQPEDIATYYCLQYEQLRTFGGGTKVEIKRTVAAPSVFIFPPSDEQLKSGTASVVCLLNNFYPREAKVQWKVDNALQSGNSQESVTEQDSKDSTYSLSSTLTLSKADYEKHKVYACEVTHQGLSSPVTKSFNRGEC	2.2	15.5	0.8	5.3	31.9
H240-Kn037/H240-Hl036/L73-k0 (antibody, human IgG1, kappa, it says that both H chains have G236A/S239D/I332E) heavy 1: QDQLVQSGAEVKKPGASVKVSCKASGFNIKDTYIQWVRQAPGQGLEWMGRIDPLRKQTKYREKFEGRVTITADTSTNTAYMELSSLRSEDTAVYYCVRSGREFDYWGQGTLVTVSSASTKGPSVFPLAPSSKSTSGGTAALGCLVKDYFPEPVTVSWNSGALTSGVHTFPAVLQSSGLYSLSSVVTVPSSSLGTQTYICNVNHKPSNTKVDKKVEPKSCDKTHTCPPCPAPELLAGPDVFLFPPKPKDTLMISRTPEVTCVVVDVSHEDPEVKFNWYVDGVEVHNAKTKPREEQYNSTYRVVSVLTVLHQDWLNGKEYKCKVSNKALPAPEEKTISKAKGQPREPQVCTLPPSRDELTKNQVSLWCLVKGFYPSDIAVEWESNGQPENNYKTTPPVLDSDGSFFLYSKLTVDKSRWQQGNVFSCSVMHEALHNHYTQKSLSLSP heavy 2: QDQLVQSGAEVKKPGASVKVSCKASGFNIKDTYIQWVRQAPGQGLEWMGRIDPLRKQTKYREKFEGRVTITADTSTNTAYMELSSLRSEDTAVYYCVRSGREFDYWGQGTLVTVSSASTKGPSVFPLAPSSKSTSGGTAALGCLVKDYFPEPVTVSWNSGALTSGVHTFPAVLQSSGLYSLSSVVTVPSSSLGTQTYICNVNHKPSNTKVDKKVEPKSCDKTHTCPPCPAPELLAGPDVFLFPPKPKDTLMISRTPEVTCVVVDVSHEDPEVKFNWYVDGVEVHNAKTKPREEQYNSTYRVVSVLTVLHQDWLNGKEYKCKVSNKALPAPEEKTISKAKGQPREPQVYTLPPSRCELTKNQVSLSCAVKGFYPSDIAVEWESNGQPENNYKTTPPVLDSDGSFFLVSKLTVDKSRWQQGNVFSCSVMHEALHNHYTQKSLSLSP light: DIQMTQSPSSLSASVGDRVTITCRASQDIHKYIAWYQQKPGQAPRLLIQYTSTLQPGVPSRFSGSGSGTDYTFTISSLQPEDIATYYCLQYEQLRTFGGGTKVEIKRTVAAPSVFIFPPSDEQLKSGTASVVCLLNNFYPREAKVQWKVDNALQSGNSQESVTEQDSKDSTYSLSSTLTLSKADYEKHKVYACEVTHQGLSSPVTKSFNRGEC	25.5	7.1	11.3	8.7	13.8

The next lines start with the values.

fold 2aR [1] [fold]	fold 3aV [2] [fold]	fold 2aH [3] [fold]	fold 2b [4] [fold]	fold 3aF [5] [fold]	Binder
1.2	6.5	0.7	2.5	20.7	H240-Kn204/H240-Hl211/L73-k0 (antibody, human IgG1, kappa, L234Y/K290Y/Y296W in one H chain, S239D/A330M/K334V in the other) heavy 1: QDQLVQSGAEVKKPGASVKVSCKASGFNIKDTYIQWVRQAPGQGLEWMGRIDPLRKQTKYREKFEGRVTITADTSTNTAYMELSSLRSEDTAVYYCVRSGREFDYWGQGTLVTVSSASTKGPSVFPLAPSSKSTSGGTAALGCLVKDYFPEPVTVSWNSGALTSGVHTFPAVLQSSGLYSLSSVVTVPSSSLGTQTYICNVNHKPSNTKVDKKVEPKSCDKTHTCPPCPAPEYLGGPSVFLFPPKPKDTLMISRTPEVTCVVVDVSHEDPEVKFNWYVDGVEVHNAKTYPREEQWNSTYRVVSVLTVLHQDWLNGKEYKCKVSNKALPAPIEKTISKAKGQPREPQVCTLPPSRDELTKNQVSLWCLVKGFYPSDIAVEWESNGQPENNYKTTPPVLDSDGSFFLYSKLTVDKSRWQQGNVFSCSVMHEALHNHYTQKSLSLSP heavy 2: QDQLVQSGAEVKKPGASVKVSCKASGFNIKDTYIQWVRQAPGQGLEWMGRIDPLRKQTKYREKFEGRVTITADTSTNTAYMELSSLRSEDTAVYYCVRSGREFDYWGQGTLVTVSSASTKGPSVFPLAPSSKSTSGGTAALGCLVKDYFPEPVTVSWNSGALTSGVHTFPAVLQSSGLYSLSSVVTVPSSSLGTQTYICNVNHKPSNTKVDKKVEPKSCDKTHTCPPCPAPELLGGPDVFLFPPKPKDTLMISRTPEVTCVVVDVSHEDPEVKFNWYVDGVEVHNAKTKPREEQYNSTYRVVSVLTVLHQDWLNGKEYKCKVSNKALPMPIEVTISKAKGQPREPQVYTLPPSRCELTKNQVSLSCAVKGFYPSDIAVEWESNGQPENNYKTTPPVLDSDGSFFLVSKLTVDKSRWQQGNVFSCSVMHEALHNHYTQKSLSLSP light: DIQMTQSPSSLSASVGDRVTITCRASQDIHKYIAWYQQKPGQAPRLLIQYTSTLQPGVPSRFSGSGSGTDYTFTISSLQPEDIATYYCLQYEQLRTFGGGTKVEIKRTVAAPSVFIFPPSDEQLKSGTASVVCLLNNFYPREAKVQWKVDNALQSGNSQESVTEQDSKDSTYSLSSTLTLSKADYEKHKVYACEVTHQGLSSPVTKSFNRGEC
1.2	11.4	1.4	2.1	24.2	H240-Kn205/H240-Hl212/L73-k0 (antibody, human IgG1, kappa, L234Y/Y296W/S298C in one H chain, S239D/K334V in the other) heavy 1: QDQLVQSGAEVKKPGASVKVSCKASGFNIKDTYIQWVRQAPGQGLEWMGRIDPLRKQTKYREKFEGRVTITADTSTNTAYMELSSLRSEDTAVYYCVRSGREFDYWGQGTLVTVSSASTKGPSVFPLAPSSKSTSGGTAALGCLVKDYFPEPVTVSWNSGALTSGVHTFPAVLQSSGLYSLSSVVTVPSSSLGTQTYICNVNHKPSNTKVDKKVEPKSCDKTHTCPPCPAPEYLGGPSVFLFPPKPKDTLMISRTPEVTCVVVDVSHEDPEVKFNWYVDGVEVHNAKTKPREEQWNCTYRVVSVLTVLHQDWLNGKEYKCKVSNKALPAPIEKTISKAKGQPREPQVCTLPPSRDELTKNQVSLWCLVKGFYPSDIAVEWESNGQPENNYKTTPPVLDSDGSFFLYSKLTVDKSRWQQGNVFSCSVMHEALHNHYTQKSLSLSP heavy 2: QDQLVQSGAEVKKPGASVKVSCKASGFNIKDTYIQWVRQAPGQGLEWMGRIDPLRKQTKYREKFEGRVTITADTSTNTAYMELSSLRSEDTAVYYCVRSGREFDYWGQGTLVTVSSASTKGPSVFPLAPSSKSTSGGTAALGCLVKDYFPEPVTVSWNSGALTSGVHTFPAVLQSSGLYSLSSVVTVPSSSLGTQTYICNVNHKPSNTKVDKKVEPKSCDKTHTCPPCPAPELLGGPDVFLFPPKPKDTLMISRTPEVTCVVVDVSHEDPEVKFNWYVDGVEVHNAKTKPREEQYNSTYRVVSVLTVLHQDWLNGKEYKCKVSNKALPAPIEVTISKAKGQPREPQVYTLPPSRCELTKNQVSLSCAVKGFYPSDIAVEWESNGQPENNYKTTPPVLDSDGSFFLVSKLTVDKSRWQQGNVFSCSVMHEALHNHYTQKSLSLSP light: DIQMTQSPSSLSASVGDRVTITCRASQDIHKYIAWYQQKPGQAPRLLIQYTSTLQPGVPSRFSGSGSGTDYTFTISSLQPEDIATYYCLQYEQLRTFGGGTKVEIKRTVAAPSVFIFPPSDEQLKSGTASVVCLLNNFYPREAKVQWKVDNALQSGNSQESVTEQDSKDSTYSLSSTLTLSKADYEKHKVYACEVTHQGLSSPVTKSFNRGEC
